The results in this text go back to patent publication US20250034266A1.

Positions count from the first letter of the chain named.

In experiment [1] the target is T1, human CCR4 (human) (UniProt P51679).
T1 sequence (looked up): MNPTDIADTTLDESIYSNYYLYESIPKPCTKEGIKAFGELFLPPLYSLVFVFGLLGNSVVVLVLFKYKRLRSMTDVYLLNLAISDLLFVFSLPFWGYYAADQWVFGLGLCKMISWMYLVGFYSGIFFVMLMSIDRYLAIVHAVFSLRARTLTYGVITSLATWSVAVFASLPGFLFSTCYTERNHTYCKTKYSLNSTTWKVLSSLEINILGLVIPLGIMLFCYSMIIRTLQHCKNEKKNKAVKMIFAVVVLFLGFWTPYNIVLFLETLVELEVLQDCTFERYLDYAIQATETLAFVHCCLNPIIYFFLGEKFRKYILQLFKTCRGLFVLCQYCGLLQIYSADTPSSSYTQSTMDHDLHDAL
The experiment in a line: FACS on ExpiCHO-S-human CCR4 cells.

Experiment [2] addresses T2, human CCR1 (human) (UniProt P32246).
T2 sequence (looked up): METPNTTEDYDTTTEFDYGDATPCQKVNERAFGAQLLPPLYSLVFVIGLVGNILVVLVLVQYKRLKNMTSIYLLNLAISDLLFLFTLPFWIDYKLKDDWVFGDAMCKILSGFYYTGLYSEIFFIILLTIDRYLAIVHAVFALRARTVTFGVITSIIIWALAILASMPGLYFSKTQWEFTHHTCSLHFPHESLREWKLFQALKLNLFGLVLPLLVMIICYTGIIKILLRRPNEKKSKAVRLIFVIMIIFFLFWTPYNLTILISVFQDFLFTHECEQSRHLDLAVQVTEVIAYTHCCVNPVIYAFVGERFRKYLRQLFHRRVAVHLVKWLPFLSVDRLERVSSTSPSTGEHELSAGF
The experiment in a line: FACS on ExpiCHO-S-human CCR1 cells.

Experiment [3] deals with human CCR8 (human) (UniProt P51685). The experiment in a line: cell-based or functional assay.
Chain of human CCR8 (human) (P51685 whole entry): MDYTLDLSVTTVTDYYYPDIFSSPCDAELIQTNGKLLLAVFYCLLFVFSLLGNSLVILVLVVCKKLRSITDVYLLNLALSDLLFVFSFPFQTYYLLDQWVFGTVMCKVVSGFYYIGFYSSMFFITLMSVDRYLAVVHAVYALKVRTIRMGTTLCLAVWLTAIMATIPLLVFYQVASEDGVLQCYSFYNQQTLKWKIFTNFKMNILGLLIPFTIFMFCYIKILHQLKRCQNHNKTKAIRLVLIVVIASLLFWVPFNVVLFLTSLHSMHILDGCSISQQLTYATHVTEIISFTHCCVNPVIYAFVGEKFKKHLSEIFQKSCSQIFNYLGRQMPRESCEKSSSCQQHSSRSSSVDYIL

B1: Hu149-9 (antibody, human IgG1, V domains shown)
VH: EVQLVESGGGLVQPGGSLKLSCAASGFTFNTYAMNWVRQASGKGLEWVGRIRSKSNFYATAYAASVKGRFTISRDDSKNTAYLQMNSLKTEDTAVYYCTRGRDYGSSYAMDYWGQGTLVTVSS
VL: DIVMTQSPLSLPVTPGEPASISCRSSKSLLHSNANTYLYWFLQKPGQSPQLLIYRMSNLASGVPDRFSGSGSGTDFTLKISRVEAEDVGVYYCMQHLEYPLTFGGGTKVELK
For the molecule B1, the Max MFI was 32.8 MFI in experiment [1] and 226 MFI in experiment [2].

B2: Hu149-4 (antibody, human IgG1, V domains shown)
VH: B1 VH with A61Y
VL: B1 VL
In experiment [1], B2 came in with a Max MFI of 44 MFI.

B3: Hu149-12G1x (antibody, V domains shown, not shown: a dimerising Fc or GST)
VH: B1 VH with R102K, D103E
VL: B1 VL
As to B3, in experiment [3], the EC50, ADCC reporter, F variant CD16a/NFAT-Jurkat, target CHO-K1-human CCR8 cells was 2.99 pM; the EC50, ADCC reporter, F variant CD16a/NFAT-Jurkat, target HuT78 cells came to 4.28 pM; the EC50, ADCC reporter, V variant CD16a/NFAT-Jurkat, target CHO-K1-human CCR8 cells is 5.05 pM; the EC50, ADCC reporter, V variant CD16a/NFAT-Jurkat, target HuT78 cells is 4.58 pM. Moreover, in experiment [3], the EC50, ADCC with human PBMCs, target CHO-K1-human CCR8 cells came to 0.828 pM; the Max (RLU), ADCC reporter, F variant CD16a/NFAT-Jurkat, target CHO-K1-human CCR8 cells amounted to 8.27e+06 RLU; the Max (RLU), ADCC reporter, F variant CD16a/NFAT-Jurkat, target HuT78 cells was 1.56e+07 RLU; the Max (RLU), ADCC reporter, V variant CD16a/NFAT-Jurkat, target CHO-K1-human CCR8 cells came out at 4.13e+06 RLU. In experiment [3], this molecule came in with a Max (RLU), ADCC reporter, V variant CD16a/NFAT-Jurkat, target HuT78 cells of 8.88e+06 RLU and a Max specific lysis (%), ADCC with human PBMCs, target CHO-K1-human CCR8 cells of 53%.
